Values quoted from earlier work in publication PMC2726996.

Experiments:
[1] = molecular target: EGFR (low-affinity sites) (Homo sapiens) (UniProt P00533)
[2] = molecular target: EGFR (high-affinity sites) (Homo sapiens) (UniProt P00533)

Kd [1]: 10 nM
Kd [2]: < 0.1 nM
Substance: EGF (from UniProt P01133)
